Reference: PMC8153049 (ACS chemical biology, 2020)
Each block holds one compound with its values, some of them ahead of it.

Key:
Assay in all cases: steady-state kinetics, HPLC of amide product
Assay type in all cases: biochemical, Streptomyces sp. CB02304
PtmC^t = PtmC^t (Streptomyces platensis, UniProt D8L2W0); conditions: 8 at 750 μM (partial saturation), 16 varied 10-200 μM; 50 mM MOPS pH 6.5
Nc1c(O)ccc(C(=O)O)c1O = conditions: 16 at 250 μM
Nc1c(O)ccc(C(=O)S)c1O = conditions: 16 at 250 μM, 9 varied 25-1500 μM, 50 mM MOPS pH 6.5, 30 °C
[1] = 8 varied 25-1500 μM, 50 mM MOPS pH 6.5, 30 °C
[2] = 8 varied 100-1000 μM, 50 mM MOPS pH 6.5

Chain of PtmC^t (D8L2W0 1-279 limits assumed): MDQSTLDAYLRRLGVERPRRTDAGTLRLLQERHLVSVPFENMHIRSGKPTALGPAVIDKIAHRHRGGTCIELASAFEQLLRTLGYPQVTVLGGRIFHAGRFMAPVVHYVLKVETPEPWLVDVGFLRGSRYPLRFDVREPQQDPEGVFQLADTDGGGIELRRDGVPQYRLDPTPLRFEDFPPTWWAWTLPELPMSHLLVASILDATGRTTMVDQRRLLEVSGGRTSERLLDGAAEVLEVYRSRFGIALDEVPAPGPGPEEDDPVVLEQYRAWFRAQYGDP

Km (PtmC^t): 23.7 ± 6.1 µM
Compound: CC(C)(COP(=O)(O)OP(=O)(O)OC[C@H]1O[C@@H](n2cnc3c(N)ncnc32)[C@H](O)[C@@H]1OP(=O)(O)O)[C@@H](O)C(=O)NCCC(=O)NCCSC(=O)CC[C@]1(C)C(=O)C=C[C@]23C[C@H]4C[C@H](O[C@@]4(C)C2)[C@H]31 [compound 16, platensicyl-CoA]

Compound: PtmC (Streptomyces platensis)
Km (Nc1c(O)ccc(C(=O)O)c1O; [1]): 372 ± 49 µM | kcat (Nc1c(O)ccc(C(=O)O)c1O; [1]): 1.54 ± 0.075 s⁻¹ | Km (Nc1c(O)ccc(C(=O)S)c1O): 142 ± 54 µM | kcat (Nc1c(O)ccc(C(=O)S)c1O): 4.7 ± 0.067 s⁻¹

Compound: PtmC^t (Streptomyces platensis)
Km (Nc1c(O)ccc(C(=O)O)c1O; [2]): 375 ± 119 µM | kcat (Nc1c(O)ccc(C(=O)O)c1O; [2]): 0.318 ± 0.0417 s⁻¹
